In publication PMC3745516:

Target: CTEN (UniProt Q8IZW8)
Test: anti-Flag co-IP, anti-HA blot
Settings: reference: HA-c-Cbl wild type; sites Y774

c-Cbl (from UniProt P22681) Y774F
binding against the reference: lost
